# Test results published in patent US20070298499, “Methods and compositions for regulating gene expression in plant cells” (published 2007).
# Columns and labels:
# [1] = molecular target: T1, RF2b (expressed in BY-2 protoplasts) (UniProt Q6S4P4); assay: cell_activity; conditions: GUS reporter in BY-2 protoplasts
# T1 sequence: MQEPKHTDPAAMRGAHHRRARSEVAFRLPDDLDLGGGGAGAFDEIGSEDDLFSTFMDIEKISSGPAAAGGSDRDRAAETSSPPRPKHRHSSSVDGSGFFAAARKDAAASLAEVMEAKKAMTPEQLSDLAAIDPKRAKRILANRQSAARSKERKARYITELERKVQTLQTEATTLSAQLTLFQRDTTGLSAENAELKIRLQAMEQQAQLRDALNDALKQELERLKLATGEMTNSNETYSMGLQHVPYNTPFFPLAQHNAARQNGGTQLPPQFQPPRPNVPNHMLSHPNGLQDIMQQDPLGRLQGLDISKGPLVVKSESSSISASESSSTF
# [2] = molecular target: T2, RF2b (UniProt Q6S4P4 SEQ:1-329); assay: SPR; value only in figure; lower affinity than RF2a; conditions: chain copies: 2 (inferred, bZIP dimer), label: biotin (SPR)
# T2 chain: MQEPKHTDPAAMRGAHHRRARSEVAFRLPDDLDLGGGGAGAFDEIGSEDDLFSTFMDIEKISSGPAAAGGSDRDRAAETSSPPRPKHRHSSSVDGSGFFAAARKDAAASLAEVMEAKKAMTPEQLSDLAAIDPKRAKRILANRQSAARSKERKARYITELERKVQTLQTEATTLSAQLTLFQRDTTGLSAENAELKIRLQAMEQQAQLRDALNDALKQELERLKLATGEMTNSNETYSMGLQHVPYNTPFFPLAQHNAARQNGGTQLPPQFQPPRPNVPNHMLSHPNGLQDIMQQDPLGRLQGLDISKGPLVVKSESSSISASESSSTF
# Experimental: (§1) To compare the binding affinities of RF2a and RF2b with the Box II element and its mutants, real time Surface Plasmon Resonance (“SPR”) measurements were conducted using a BIAcore 2000 instrument. The binding affinities of RF2a and RF2b to these DNA targets were measured on chips on which biotin labeled-Box II, -Box IIm1 and -Box IIm2 elements were immobilized.
# (§2) The association and de-association constants were determined using BIAevaluation 3.1 software—using 1:1 binding with a mass transfer model. In general, RF2a has relatively higher binding affinities to the Box II, Box IIm1 and Box IIm2 elements when compared to RF2b. Furthermore, the DNA binding behavior of RF2a and RF2b are quite different from each other. RF2a appears to bind rapidly to the DNA target and slowly dissociates from the target, while RF2b binds slowly to the DNA target and releases from the target relatively quickly. The differences in the affinity of RF2a to the Box II element and its mutants, however, are not as dramatic as the differences of RF2b, while the relative order of affinities to the different target elements is the same for both proteins (FIG. 8).
# [3] = molecular target: T3, RF2a-ΔPΔA (proline-rich and acidic domains deleted) (UniProt Q69IL4 SEQ:1-261); assay: EMSA; 100 ng protein, 5% acrylamide gel; conditions: tags: N-terminal His6 (pET28a); chain copies: 2 (inferred, bZIP dimer); label: biotin (SPR); 32P (EMSA)
# T3 chain: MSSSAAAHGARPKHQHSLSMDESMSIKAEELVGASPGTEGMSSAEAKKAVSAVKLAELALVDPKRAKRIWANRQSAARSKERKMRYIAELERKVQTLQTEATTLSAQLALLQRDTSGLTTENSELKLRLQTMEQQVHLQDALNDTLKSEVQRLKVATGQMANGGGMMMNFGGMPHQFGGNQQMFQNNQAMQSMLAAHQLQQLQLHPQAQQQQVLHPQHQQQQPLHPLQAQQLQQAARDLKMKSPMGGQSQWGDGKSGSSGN
# Experimental: (§3) The purified mutant proteins were then analyzed by SDS-PAGE to confirm that each protein was its expected size (FIG. 16(B)). To confirm that each of the mutant proteins bind to the DNA target, i.e., the Box II element and/or its operational derivatives, gel mobility shift assays were carried out with the purified recombinant proteins (FIG. 16(C)). The electrophoretic mobility shift assays were carried out essentially as described in Yin and Beachy (1995). 100 ng of proteins purified from the transformed E. coli were incubated with ³²P-labeled Box IIm1 DNA probe followed by electrophoresis in a 5% acrylamide gel (Yin et al., 1997) (FIG. 16(C)).
# [4] = molecular target: T4, RF2a-ΔPΔQ (proline- and glutamine-rich domains deleted) (UniProt Q69IL4 SEQ:1-236); assay: EMSA; 100 ng protein, 5% acrylamide gel; conditions: tags: N-terminal His6 (pET28a); chain copies: 2 (inferred, bZIP dimer); label: biotin (SPR); 32P (EMSA)
# T4 chain: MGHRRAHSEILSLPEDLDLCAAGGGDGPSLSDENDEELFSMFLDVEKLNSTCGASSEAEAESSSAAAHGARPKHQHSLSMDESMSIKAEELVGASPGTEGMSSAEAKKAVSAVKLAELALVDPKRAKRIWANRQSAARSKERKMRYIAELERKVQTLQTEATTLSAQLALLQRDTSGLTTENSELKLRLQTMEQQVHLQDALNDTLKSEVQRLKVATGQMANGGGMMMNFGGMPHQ
# Experimental: as §3
# [5] = molecular target: T5, RF2a-ΔQ (glutamine-rich domain deleted) (UniProt Q69IL4 SEQ:1-283); assay: EMSA; 100 ng protein, 5% acrylamide gel; conditions: tags: N-terminal His6 (pET28a); chain copies: 2 (inferred, bZIP dimer); label: biotin (SPR); 32P (EMSA)
# T5 chain: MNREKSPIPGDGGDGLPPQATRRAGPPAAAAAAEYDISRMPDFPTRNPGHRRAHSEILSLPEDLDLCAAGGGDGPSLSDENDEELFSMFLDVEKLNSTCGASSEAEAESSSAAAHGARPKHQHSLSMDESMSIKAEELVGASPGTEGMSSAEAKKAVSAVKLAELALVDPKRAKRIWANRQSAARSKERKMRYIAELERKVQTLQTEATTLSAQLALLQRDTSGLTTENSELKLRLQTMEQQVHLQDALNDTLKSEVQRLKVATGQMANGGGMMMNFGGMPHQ
# Experimental: as §3
# [6] = molecular target: T6, RF2a-ΔP (proline-rich domain deleted) (UniProt Q69IL4 SEQ:1-320); assay: EMSA; 100 ng protein, 5% acrylamide gel; conditions: tags: N-terminal His6 (pET28a); chain copies: 2 (inferred, bZIP dimer); label: biotin (SPR); 32P (EMSA)
# T6 chain: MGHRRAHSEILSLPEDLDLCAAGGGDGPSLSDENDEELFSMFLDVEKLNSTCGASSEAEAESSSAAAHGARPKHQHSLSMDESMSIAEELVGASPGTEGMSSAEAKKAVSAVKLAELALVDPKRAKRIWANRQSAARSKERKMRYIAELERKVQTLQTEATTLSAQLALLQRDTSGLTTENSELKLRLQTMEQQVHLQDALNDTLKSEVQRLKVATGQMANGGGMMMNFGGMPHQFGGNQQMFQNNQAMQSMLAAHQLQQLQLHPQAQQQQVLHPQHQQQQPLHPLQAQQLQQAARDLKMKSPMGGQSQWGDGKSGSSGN
# Experimental: as §3
# [7] = molecular target: T2, RF2b; assay: SPR; value only in figure; lower affinity than RF2a; slow on, relatively fast off; conditions: chain copies: 2 (inferred, bZIP dimer); label: biotin (SPR)
# Experimental: as §1, §2
molecule,measurement,setting,value
ACGAATCAATAAAGAAGGACCAGAAGATATAAAGCTGGAACATCTTCACATGCTACCACATGGCTAGCATCTTTACTTTAGCATCTCTATTATTGTAAGAGTGTATAATGACCAGTGTGGCGCTGGACTCCAGTATATAAGGAGCACCAGAGTAGTGTAATAGATCATCGATCAAGCAAGCGAGAGCTCAAACTTCTAAGAGAGCAAGA (double strand) [E fragment with Box IIm1],activity (fold activation),[1],7
ACGAATCAATAAAGAAGGACCAGAAGATATAAAGCTGGAACATCTTCACATGCTACCACATGGCTAGCATCTTTACTTTAGCATCTCTATTATTGTAAGAGTGTATAATGAGGAGTGTGCCCCTTCACTCCAGTATATAAGGAGCACCAGAGTAGTGTAATAGATCATCGATCAAGCAAGCGAGAGCTCAAACTTCTAAGAGAGCAAGA (double strand) [E fragment with Box IIm2],activity (fold activation),[1],5.8
Box IIm2 (dsDNA) DNA 1: GGAGTGTGCCCCTTC DNA 2: GAAGGGGCACACTCC,binding result,[2],binds
Box IIm1 (dsDNA) DNA 1: CCAGTGTGGCGCTGG DNA 2: CCAGCGCCACACTGG,binding result,[3],binds
same,binding result,[4],binds
same,binding result,[5],binds
same,binding result,[6],binds
same,binding result,[2]; 32P (EMSA),binds
Box II (dsDNA) DNA 1: CCAGTGTGCCCCTGG DNA 2: CCAGGGGCACACTGG,binding result,[7],binds
